± gives the standard deviation of the averaged measurements.
What was measured:
Saccharomyces cerevisiae [1] = experiment: protein stability index of tFT-peptide fusion in wild type (PSI (0-1 scale)); higher = more stable (slower turnover); conditions: genetic background: wild type
Saccharomyces cerevisiae [2] = experiment: protein stability index of tFT-peptide fusion in deletion strain of DOA10 (PSI (0-1 scale)); higher = more stable (slower turnover)
Procedure: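 MPS profiling in S. cerevisiae of two library types built from selected 12-aa C-degron peptides (IN1, IN2, LN1, LN3, VN2, R1-R5, W1-W3, Atg1 and Rpa12 C-termini): saturation mutagenesis libraries and C-terminal +1 capping libraries (13 aa). Each peptide is fused to the C-terminus of a sfGFP-mCherry timer, after a GGGS linker. Cells are FACS-sorted into 8 mCherry/sfGFP bins and sequenced. PSI runs from 0 (unstable) to 1 (stable), measured once in wild type and in the das1Δ or doa10Δ background.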

Saccharomyces cerevisiae [3] = experiment: protein stability index of tFT-peptide fusion (C-terminal peptide) (PSI (0-1 scale)); higher = more stable (slower turnover)
Procedure: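 MPS profiling in S. cerevisiae of the tFT-X12 degron library: putative degron peptides plus stable controls, 12 aa, fused to the C-terminus of a sfGFP-mCherry timer. Cells are FACS-sorted into 8 mCherry/sfGFP bins and deep-sequenced. PSI runs from 0 (unstable) to 1 (stable). Backgrounds are wild type, das1Δ and doa10Δ at 30 °C, and wild type, das1Δ, cdc34-1 and cdc53-1 at 37 °C; 2-3 technical replicates each.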

Saccharomyces cerevisiae [4] = experiment: as above; conditions: genetic background: wild type; temperature: 30 C
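Throughout, for protein stability index of tFT-peptide fusion (C-terminal peptide): PSI is a weighted mean of sequencing reads over stability bins, variants kept only with over 10 reads, mCherry proximal and sfGFP distal, peptide attached via GGGS linker.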
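Throughout, for protein stability index of tFT-peptide fusion in deletion strain of DOA10: PSI per variant is the weighted mean of its sequencing read distribution over the sorted stability bins, counting only variants with over 10 reads summed across bins.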
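Throughout, for protein stability index of tFT-peptide fusion in wild type: PSI derived as read-weighted mean over the 8 sorting bins, only variants exceeding 10 total reads kept, mCherry placed adjacent to the peptide and sfGFP distal.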

Row | Sequence | protein stability index (Saccharomyces cerevisiae [1]) | protein stability index (Saccharomyces cerevisiae [2]) | other results
1 | RSLRVHLPLYFR | 0.157 | 0.67 | 
2 | RVTRLDAISFRI | 0.691 | 0.727 | 
3 | RSLRVLLSLYFR | 0.452 | 0.643 | 
4 | RVTRLDAIYPRI | 0.693 | 0.731 | 
5 | CLVSIPILLFFR | 0.057 | 0.556 | 
6 | RSLRVLLPLYFRI | 0.184 | 0.484 | 
7 | RSLRVLLPLYFRT | 0.268 | 0.655 | 
8 | CKVSLPILLFFR | 0.0542 | 0.621 | 
9 | CLASLPILLFFR | 0.0826 | 0.626 | 
10 | RSLRVLLPLYKR | 0.602 | 0.662 | 
11 | CLVSLPNLLFFR | 0.11 | 0.685 | 
12 | RSLRVILPLYFR | 0.197 | 0.675 | 
13 | RSLRVLLKLYFR | 0.417 | 0.616 | 
14 | AITLPMCPLLVR | 0.181 | 0.231 | 
15 | AITLPMVPLLLR | 0.153 | 0.622 | 
16 | CLHSLPILLFFR | 0.0715 | 0.626 | 
17 | RWLRVLLPLYFR | 0.402 | 0.682 | 
18 | AITLPMCALLLR | 0.149 | 0.638 | 
19 | CLVSLPILLMFR | 0.0704 | 0.581 | 
20 | RSLRVLLPLYFS | 0.246 | 0.352 | 
21 | AITLPMCPLLLI | 0.493 | 0.596 | 
22 | CLVSLPILLFFRN | 0.0659 | 0.531 | 
23 | RVTRLDAIYFRIW | 0.234 | 0.577 | 
24 | GLYMHSVGCWFR | 0.255 | 0.706 | 
25 | GLYMCSVGCWFRN | 0.286 | 0.584 | 
26 | GLYMCSVDCWFR | 0.574 | 0.615 | 
27 | AILLPMCPLLLR | 0.281 | 0.612 | 

Row | Sequence | protein stability index (Saccharomyces cerevisiae [1]) | protein stability index (Saccharomyces cerevisiae [2]) | other results
28 | RVTRLDAGYFRI | 0.673 | 0.702 | 
29 | RSLRVYLPLYFR | 0.268 | 0.678 | 
30 | CLVSCPILLFFR | 0.0926 | 0.578 | 
31 | HLYMCSVGCWFR | 0.401 | 0.63 | 
32 | RSLRVLLPLKFR | 0.431 | 0.67 | 
33 | CLVSLPILLFFRE | 0.148 | 0.582 | 
34 | RNLRVLLPLYFR | 0.302 | 0.682 | 
35 | GLYMCSVGCWFS | 0.381 | 0.445 | 
36 | GLYICSVGCWFR | 0.181 | 0.539 | 
37 | RVTLLDAIYFRI | 0.455 | 0.662 | 
38 | RVTRLDAIYFRI | 0.328 | 0.681 | protein stability index (Saccharomyces cerevisiae [3]; genetic background: cdc34-1, temperature: 37 C): 0.265 ± 0.06; protein stability index (Saccharomyces cerevisiae [3]; genetic background: cdc53-1, temperature: 37 C): 0.198 ± 0.0072; protein stability index (Saccharomyces cerevisiae [3]; genetic background: das1 deletion, temperature: 30 C): 0.341 ± 0.031; protein stability index (Saccharomyces cerevisiae [3]; genetic background: das1 deletion, temperature: 37 C): 0.351 ± 0.012; protein stability index (Saccharomyces cerevisiae [3]; genetic background: doa10 deletion, temperature: 30 C): 0.717 ± 0.03; protein stability index (Saccharomyces cerevisiae [3]; genetic background: wild type, temperature: 30 C): 0.312 ± 0.014; protein stability index (Saccharomyces cerevisiae [3]; genetic background: wild type, temperature: 37 C): 0.323 ± 0.0054; protein stability index (Saccharomyces cerevisiae [4]): 0.381 ± 0.019
39 | RSLRVLLPLYAR | 0.348 | 0.474 | 
40 | RSLRVLLPLYFK | 0.25 | 0.633 | 
41 | RSLRVLLPLYFD | 0.491 | 0.63 | 
42 | GLYMLSVGCWFR | 0.246 | 0.464 | 
43 | GLYMCSVGSWFR | 0.634 | 0.69 | 
44 | GLYMCSVYCWFR | 0.255 | 0.374 | 
45 | RVTRLDAIYFQI | 0.292 | 0.305 | 
46 | RFTRLDAIYFRI | 0.378 | 0.656 | 
47 | GLYMCSVGCWFRF | 0.166 | 0.636 | 
48 | CLVRLPILLFFR | 0.0563 | 0.595 | 
49 | RSLGVLLPLYFR | 0.321 | 0.691 | 
50 | RVTRLDAIYFRL | 0.395 | 0.7 | 
51 | RVTRLDAIYFRQ | 0.533 | 0.589 | 
52 | AITLPMCQLLLR | 0.174 | 0.663 | 
53 | RVTRKDAIYFRI | 0.564 | 0.664 | 
54 | AITLPMEPLLLR | 0.441 | 0.67 | 

Row | Sequence | protein stability index (Saccharomyces cerevisiae [1]) | protein stability index (Saccharomyces cerevisiae [2]) | other results
55 | CLVSAPILLFFR | 0.11 | 0.639 | 
56 | RVTRLDAIKFRI | 0.66 | 0.685 | 
57 | CLVSLPILLFMR | 0.0691 | 0.56 | 
58 | CLVSLPILTFFR | 0.523 | 0.643 | 
59 | RSLRVLLVLYFR | 0.269 | 0.389 | 
60 | GSLRVLLPLYFR | 0.242 | 0.685 | 
61 | GLYMCSVCCWFR | 0.47 | 0.548 | 
62 | RVTRLMAIYFRI | 0.155 | 0.295 | 
63 | GKYMCSVGCWFR | 0.406 | 0.674 | 
64 | GLYMCSVGCWFK | 0.291 | 0.628 | 
65 | RSLRVLLPLYFM | 0.328 | 0.42 | 
66 | AITLPMCPLTLR | 0.363 | 0.672 | 
67 | GLYMCSVGCWFF | 0.473 | 0.532 | 
68 | GLYMCSVGCWVR | 0.215 | 0.341 | 
69 | AITVPMCPLLLR | 0.299 | 0.656 | 
70 | AITLPMCPLLLRD | 0.422 | 0.65 | 
71 | RSLRVLLPLYFI | 0.255 | 0.528 | 
72 | WLYMCSVGCWFR | 0.302 | 0.633 | 
73 | RSLRVLLPLYFQ | 0.431 | 0.615 | 
74 | AITLPMCPLLLV | 0.349 | 0.417 | 
75 | RVTRLDAIWFRI | 0.22 | 0.676 | 
76 | RVTRLDAWYFRI | 0.678 | 0.717 | 
77 | AITLPMCPLLKR | 0.645 | 0.676 | 
78 | GLYMCSHGCWFR | 0.435 | 0.695 | 
79 | AFTLPMCPLLLR | 0.171 | 0.653 | 
80 | GLYMCPVGCWFR | 0.26 | 0.664 | 
81 | AITLPNCPLLLR | 0.337 | 0.682 | 

Row | Sequence | protein stability index (Saccharomyces cerevisiae [1]) | protein stability index (Saccharomyces cerevisiae [2]) | other results
82 | GLYMCSVGHWFR | 0.656 | 0.679 | 
83 | GLYMCSFGCWFR | 0.239 | 0.665 | 
84 | CLVSLPILMFFR | 0.0684 | 0.591 | 
85 | CLVSLPILLPFR | 0.642 | 0.67 | 
86 | GLYMCSVGGWFR | 0.644 | 0.674 | 
87 | RSLRWLLPLYFR | 0.427 | 0.642 | 
88 | QLYMCSVGCWFR | 0.368 | 0.625 | 
89 | RVTRGDAIYFRI | 0.553 | 0.693 | 
90 | RITRLDAIYFRI | 0.397 | 0.673 | 
91 | RSLRVLYPLYFR | 0.279 | 0.67 | 
92 | RMLRVLLPLYFR | 0.359 | 0.656 | 
93 | GLYLCSVGCWFR | 0.21 | 0.575 | 
94 | RSLRVLLPLYFRA | 0.244 | 0.593 | 
95 | RSLRVLLRLYFR | 0.391 | 0.625 | 
96 | CQVSLPILLFFR | 0.0497 | 0.631 | 
97 | AICLPMCPLLLR | 0.224 | 0.632 | 
98 | CLVSGPILLFFR | 0.217 | 0.631 | 
99 | AITLPSCPLLLR | 0.304 | 0.669 | 
100 | RVPRLDAIYFRI | 0.389 | 0.669 | 
101 | RVTRLDKIYFRI | 0.283 | 0.51 | 
102 | GLYMCNVGCWFR | 0.385 | 0.676 | 
103 | RSLRYLLPLYFR | 0.378 | 0.671 | 
104 | CLVSLPILLRFR | 0.153 | 0.647 | 
105 | RSLRVLLPLRFR | 0.41 | 0.661 | 

Reference: the supplement of paper PMC10724198
